The results in this text go back to the supplement of paper PMC11246515.

The nature of this series: total protein half-life in vivo (active degradation + dilution); higher = more stable protein.
The mark [1] stands for this setting: E. coli NCM3722 delta-clpP delta-lon delta-hslV, growth: N-lim chemostat, doubling time 6 h.
The mark [2] stands for this setting: E. coli NCM3722 delta-clpP, growth: N-lim chemostat, doubling time 6 h.
[3] abbreviates: E. coli NCM3722 delta-hslV, growth: N-lim chemostat, doubling time 6 h.
[4] abbreviates: E. coli NCM3722 delta-lon, growth: N-lim chemostat, doubling time 6 h.
[5] abbreviates: E. coli NCM3722 delta-smpB, growth: N-lim chemostat, doubling time 6 h.
The mark [6] stands for this setting: wild type E. coli NCM3722, growth: C-lim chemostat, doubling time 3 h.
Setting [7] is: wild type E. coli NCM3722, growth: C-lim chemostat, doubling time 6 h.
The mark [8] stands for this setting: wild type E. coli NCM3722, growth: C-lim chemostat, doubling time 12 h.
The mark [9] stands for this setting: wild type E. coli NCM3722, growth: N-lim chemostat, doubling time 6 h.
Where [10] appears, read: wild type E. coli NCM3722, growth: N-lim chemostat, doubling time 12 h.
The mark [11] stands for this setting: wild type E. coli NCM3722, growth: P-lim chemostat, doubling time 6 h.
Where [12] appears, read: wild type E. coli NCM3722, growth: P-lim chemostat, doubling time 12 h.

± gives the standard deviation of the averaged measurements.

With “MAGPVLYQDRAMKQITFAPRNHLLTNTNTWTPDSQWLVFDVRPSGASFTGETIERVNIHTGEVEVIYRASQGAHVGVVTVHPKSEKYVFIHGPENPDETWHYDFHHRRGVIVEGGKMSNLDAMDITAPYTPGVLRGGSHVHVFSPNGERVSFTYNDHVMHELDPALDLRNVGVAAPFGPVNVQKQHPREYSGSHWCVLVSKTTPTPQPGSDEINRAYEEGWVGNHALAFIGDTLSPKGEKVPELFIVELPQDEAGWKAAGDAPLSGTETTLPAPPRGVVQRRLTFTHHRAYPGLVNVPRHWVRCNPQGTQIAFLMRDDNGIVQLWLISPQGGEPRQLTHNKTDIQSAFNWHPSGEWLGFVLDNRIACAHAQSGEVEYLTEHHANSPSADAVVFSPDGQWLAWMEGGQLWITETDR”, the “total protein half-life in vivo” value reads like this: under setting [1], 5.27 ± 0.21 h; under setting [2], 4.73 ± 0.52 h; under setting [3], 4.97 ± 0.094 h; under setting [4], 4.8 ± 0.15 h; under setting [5], 4.67 ± 0.09 h; under setting [6], 3.17 ± 0.043 h. The “total protein half-life in vivo” value is, setting by setting: under setting [7], 5.92 ± 0.44 h; under setting [8], 11.1 ± 1.4 h; under setting [9], 4.8 ± 0.56 h; under setting [10], 8.45 ± 0.1 h; under setting [11], 6.23 ± 0.21 h; under setting [12], 11.3 ± 0.79 h.

For “MIRKSATGVIVALAVIWGGGTWYTGTQIQPGVEKFIKDFNDAKKKGEHAYDMTLSYQNFDKGFFNSRFQMQMTFDNGAPDLNIKPGQKVVFDVDVEHGPLPITMLMHGNVIPALAAAKVNLVNNELTQPLFIAAKNKSPVEATLRFAFGGSFSTTLDVAPAEYGKFSFGEGQFTFNGDGSSLSNLDIEGKVEDIVLQLSPMNKVTAKSFTIDSLARLEEKKFPVGESESKFNQINIINHGEDVAQIDAFVAKTRLDRVKDKDYINVNLTYELDKLTKGNQQLGSGEWSLIAESIDPSAVRQFIIQYNIAMQKQLAAHPELANDEVALQEVNAALFKEYLPLLQKSEPTIKQPVRWKNALGELNANLDISIADPAKSSSSTNKDIKSLNFDVKLPLNVVTETAKQLNLSEGMDAEKAQKQADKQISGMMTLGQMFQLITIDNNTASLQLRYTPGKVVFNGQEMSEEEFMSRAGRFVH”, the “total protein half-life in vivo” value runs as follows: under setting [3], 5.74 h; under setting [4], 6.55 h; under setting [6], 2.57 h; under setting [9], 6.18 h; under setting [11], 5.4 h.

Consider “MNKTTEYIDAMPIAASEKAALPKTDIRAVHQALDAEHRTWAREDDSPQGSVKARLEQAWPDSLADGQLIKDDEGRDQLKAMPEAKRSSMFPDPWRTNPVGRFWDRLRGRDVTPRYLARLTKEEQESEQKWRTVGTIRRYILLILTLAQTVVATWYMKTILPYQGWALINPMDMVGQDLWVSFMQLLPYMLQTGILILFAVLFCWVSAGFWTALMGFLQLLIGRDKYSISASTVGDEPLNPEHRTALIMPICNEDVNRVFAGLRATWESVKATGNAKHFDVYILSDSYNPDICVAEQKAWMELIAEVGGEGQIFYRRRRRRVKRKSGNIDDFCRRWGSQYSYMVVLDADSVMTGDCLCGLVRLMEANPNAGIIQSSPKASGMDTLYARCQQFATRVYGPLFTAGLHFWQLGESHYWGHNAIIRVKPFIEHCALAPLPGEGSFAGSILSHDFVEAALMRRAGWGVWIAYDLPGSYEELPPNLLDELKRDRRWCHGNLMNFRLFLVKGMHPVHRAVFLTGVMSYLSAPLWFMFLALSTALQVVHALTEPQYFLQPRQLFPVWPQWRPELAIALFASTMVLLFLPKLLSILLIWCKGTKEYGGFWRVTLSLLLEVLFSVLLAPVRMLFHTVFVVSAFLGWEVVWNSPQRDDDSTSWGEAFKRHGSQLLLGLVWAVGMAWLDLRFLFWLAPIVFSLILSPFVSVISSRATVGLRTKRWKLFLIPEEYSPPQVLVDTDRFLEMNRQRSLDDGFMHAVFNPSFNALATAMATARHRASKVLEIARDRHVEQALNETPEKLNRDRRLVLLSDPVTMARLHFRVWNSPERYSSWVSYYEGIKLNPLALRKPDAASQ”, for which the “total protein half-life in vivo” value runs as follows: under setting [1], 6.7 ± 0.34 h; under setting [2], 6.54 ± 0.33 h; under setting [3], 6.46 ± 0.79 h; under setting [4], 6.41 ± 0.39 h; under setting [5], 5.99 ± 0.24 h; under setting [6], 3.26 ± 0.39 h. The “total protein half-life in vivo” value turned out to be 6.45 ± 0.66 h under setting [7]; 6.22 ± 0.42 h under setting [9]; 13.4 ± 0.32 h under setting [10]; 6.3 ± 0.32 h under setting [11]; 13.3 ± 1.8 h under setting [12].

For “MRTTSFAKVAALCGLLALSGCASKITQPDKYSGFLNNYSDLKETTSATGKPVLRWVDPSFDQSKYDSIVWNPITYYPVPKPSTQVGQKVLDKILNYTNTEMKEAIAQRKPLVTTAGPRSLIFRGAITGVDTSKEGLQFYEVVPVALVVAGTQMATGHRTMDTRLYFEGELIDAATNKPVIKVVRQGEGKDLNNESTPMAFENIKQVIDDMATDATMFDVNKK”, the “total protein half-life in vivo” value is 5.89 ± 0.069 h under setting [1]; 6.47 ± 0.16 h under setting [3]; 5.98 ± 0.26 h under setting [5]; 3.33 ± 0.073 h under setting [6]; 6.02 ± 0.91 h under setting [7]; 10.3 ± 0.9 h under setting [8]. Besides, the “total protein half-life in vivo” value is, setting by setting: under setting [9], 6.07 ± 0.31 h; under setting [10], 12.8 ± 0.57 h; under setting [11], 5.82 ± 0.2 h; under setting [12], 13 ± 0.29 h.

As for “MSKVLVLKSSILAGYSQSNQLSDYFVEQWREKHSADEITVRDLAANPIPVLDGELVGALRPSDAPLTPRQQEALALSDELIAELKAHDVIVIAAPMYNFNISTQLKNYFDLVARAGVTFRYTENGPEGLVTGKKAIVITSRGGIHKDGPTDLVTPYLSTFLGFIGITDVKFVFAEGIAYGPEMAAKAQSDAKAAIDSIVSA”, the “total protein half-life in vivo” value is 2.22 ± 0.11 h under setting [1]; 1.48 ± 0.24 h under setting [2]; 1.34 ± 0.044 h under setting [3]; 1.5 ± 0.044 h under setting [4]; 1.49 ± 0.15 h under setting [5]; 2.81 ± 0.096 h under setting [6]. In addition, the “total protein half-life in vivo” value is 3.39 ± 0.25 h under setting [7]; 5.43 ± 0.92 h under setting [8]; 1.52 ± 0.16 h under setting [9]; 1.85 ± 0.14 h under setting [10]; 4.25 ± 0.14 h under setting [11]; 6.31 ± 0.4 h under setting [12].

“MSLSRAAIVDQLKEIVGADRVITDETVLKKNSIDRFRKFPDIHGIYTLPIPAAVVKLGSTEQVSRVLNFMNAHKINGVPRTGASATEGGLETVVENSVVLDGSAMNQIINIDIENMQATAQCGVPLEVLENALREKGYTTGHSPQSKPLAQMGGLVATRSIGQFSTLYGAIEDMVVGLEAVLADGTVTRIKNVPRRAAGPDIRHIIIGNEGALCYITEVTVKIFKFTPENNLFYGYILEDMKTGFNILREIMVEGYRPSIARLYDAEDGTQHFTHFADGKCVLIFMAEGNPRIAKVTGEGIAEIVARYPQCQRVDSKLIETWFNNLNWGPDKVAAERVQILKTGNMGFTTEVSGCWSCIHEIYESVINRIRTEFPHADDITMLGGHSSHSYQNGTNMYFVYDYNVVDCKPEEEIDKYHNPLNKIICEETIRLGGSMVHHHGIGKHRVHWSKLEHGSAWALLEGLKKQFDPNGIMNTGTIYPIEK”: the “total protein half-life in vivo” value under setting [6] came out at 3.54 h.

With “MNDIAHNLAQVRDKISAAATRCGRSPEEITLLAVSKTKPASAIAEAIDAGQRQFGENYVQEGVDKIRHFQELGVTGLEWHFIGPLQSNKSRLVAEHFDWCHTIDRLRIATRLNDQRPAELPPLNVLIQINISDENSKSGIQLAELDELAAAVAELPRLRLRGLMAIPAPESEYVRQFEVARQMAVAFAGLKTRYPHIDTLSLGMSDDMEAAIAAGSTMVRIGTAIFGARDYSKK”, the “total protein half-life in vivo” value by setting is: under setting [1], 4.54 ± 0.38 h; under setting [2], 5.38 ± 2.8 h; under setting [3], 4.27 ± 0.37 h; under setting [4], 5.68 ± 1.1 h; under setting [5], 4.24 ± 0.45 h; under setting [6], 3.39 ± 0.11 h. Besides, the “total protein half-life in vivo” value under setting [7] worked out at 5.71 ± 0.17 h; the “total protein half-life in vivo” value under setting [8] turned out to be 8.8 ± 1 h; the “total protein half-life in vivo” value under setting [9] stood at 4.33 ± 0.43 h; the “total protein half-life in vivo” value under setting [10] worked out at 7.53 ± 0.85 h; the “total protein half-life in vivo” value under setting [11] worked out at 5.95 ± 0.28 h; the “total protein half-life in vivo” value under setting [12] came out at 11.1 ± 0.35 h.

As to “MSRFVPRIIPFYLLLLVAGGTANAQSTFEQKAANPFDNNNDGLPDLGMAPENHDGEKHFAEIVKDFGETSMNDNGLDTGEQAKAFALGKVRDALSQQVNQHVESWLSPWGNASVDVKVDNEGHFTGSRGSWFVPLQDNDRYLTWSQLGLTQQDNGLVSNVGVGQRWARGNWLVGYNTFYDNLLDENLQRAGFGAEAWGEYLRLSANFYQPFAAWHEQTATQEQRMARGYDLTARMRMPFYQHLNTSVSLEQYFGDRVDLFNSGTGYHNPVALSLGLNYTPVPLVTVTAQHKQGESGENQNNLGLNLNYRFGVPLKKQLSAGEVAESQSLRGSRYDNPQRNNLPTLEYRQRKTLTVFLATPPWDLKPGETVPLKLQIRSRYGIRQLIWQGDTQILSLTPGAQANSAEGWTLIMPDWQNGEGASNHWRLSVVVEDNQGQRVSSNEITLTLVEPFDALSNDELRWEP”, the “total protein half-life in vivo” value runs as follows: under setting [2], 6.12 h; under setting [3], 5.24 ± 1.5 h; under setting [4], 5.79 ± 1.8 h; under setting [5], 5.36 ± 0.54 h; under setting [9], 6.73 ± 1 h; under setting [10], 14.3 ± 1.6 h.
